Data as given in PMC5836512 (Molecular cell, 2018).
Like-named read-outs stand apart in the source and are kept apart here. One block for each binder: values may come before it.

Key:
Cul1•^GSTRbx1 [1] = target: T1, Cul1•^GSTRbx1 (UniProt Q13616 1-776; P62877 1-108); assay: pull-down
Cul1•^GSTRbx1 [2] = target: T1, Cul1•^GSTRbx1; assay: pull-down; remark: listed apart in the source
Cul1•^GSTRbx1 [3] = target: T1, Cul1•^GSTRbx1; assay: pull-down; remark: listed apart in the source
Cul1^AMC•Rbx1 [4] = target: T2, Cul1^AMC•Rbx1 (UniProt Q13616 1-776; P62877 1-108, AMC on the C-terminus (GGGG^AMC peptide joined by sortase)); assay: FRET or BRET
T2 sequence (Q13616 whole entry, chain 1 of 2): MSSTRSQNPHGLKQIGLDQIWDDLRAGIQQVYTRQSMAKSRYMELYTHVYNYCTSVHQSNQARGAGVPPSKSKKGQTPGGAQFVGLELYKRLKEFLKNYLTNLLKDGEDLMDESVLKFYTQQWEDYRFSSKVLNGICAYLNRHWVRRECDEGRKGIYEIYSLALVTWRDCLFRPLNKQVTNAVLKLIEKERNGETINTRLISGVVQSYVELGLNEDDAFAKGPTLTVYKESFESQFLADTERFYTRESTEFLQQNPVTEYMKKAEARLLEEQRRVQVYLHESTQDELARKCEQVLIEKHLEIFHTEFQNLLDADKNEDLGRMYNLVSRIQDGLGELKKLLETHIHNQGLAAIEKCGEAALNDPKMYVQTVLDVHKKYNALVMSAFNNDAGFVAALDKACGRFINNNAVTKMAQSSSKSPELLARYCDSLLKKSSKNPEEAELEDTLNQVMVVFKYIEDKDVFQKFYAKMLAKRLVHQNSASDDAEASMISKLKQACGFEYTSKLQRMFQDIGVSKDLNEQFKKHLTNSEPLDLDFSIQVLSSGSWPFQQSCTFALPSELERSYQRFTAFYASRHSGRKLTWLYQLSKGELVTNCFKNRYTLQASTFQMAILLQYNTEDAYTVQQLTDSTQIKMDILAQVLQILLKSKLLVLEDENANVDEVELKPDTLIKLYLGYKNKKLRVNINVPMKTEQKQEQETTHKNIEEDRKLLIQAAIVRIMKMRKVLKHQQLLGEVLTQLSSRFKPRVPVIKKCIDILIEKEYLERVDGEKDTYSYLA
T2 sequence (P62877 whole entry, chain 2 of 2): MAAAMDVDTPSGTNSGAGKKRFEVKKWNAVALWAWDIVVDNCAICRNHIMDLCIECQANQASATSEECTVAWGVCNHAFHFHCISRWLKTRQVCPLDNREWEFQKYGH

Cul1^AMC•Rbx1 [5] = target: T2, Cul1^AMC•Rbx1; assay: FRET or BRET; remark: listed apart in the source

T1 sequence (Q13616 whole entry, chain 1 of 2): as the sequence (Q13616 whole entry, chain 1 of 2) above
T1 sequence (P62877 whole entry, chain 2 of 2): as the sequence (P62877 whole entry, chain 2 of 2) above

binding result (Cul1•^GSTRbx1 [1]): binds
B1: Cand1 (natural protein, UniProt Q86VP6 1-1230, looked up)
chain: MASASYHISNLLEKMTSSDKDFRFMATNDLMTELQKDSIKLDDDSERKVVKMILKLLEDKNGEVQNLAVKCLGPLVSKVKEYQVETIVDTLCTNMLSDKEQLRDISSIGLKTVIGELPPASSGSALAANVCKKITGRLTSAIAKQEDVSVQLEALDIMADMLSRQGGLLVNFHPSILTCLLPQLTSPRLAVRKRTIIALGHLVMSCGNIVFVDLIEHLLSELSKNDSMSTTRTYIQCIAAISRQAGHRIGEYLEKIIPLVVKFCNVDDDELREYCIQAFESFVRRCPKEVYPHVSTIINICLKYLTYDPNYNYDDEDEDENAMDADGGDDDDQGSDDEYSDDDDMSWKVRRAAAKCLDAVVSTRHEMLPEFYKTVSPALISRFKEREENVKADVFHAYLSLLKQTRPVQSWLCDPDAMEQGETPLTMLQSQVPNIVKALHKQMKEKSVKTRQCCFNMLTELVNVLPGALTQHIPVLVPGIIFSLNDKSSSSNLKIDALSCLYVILCNHSPQVFHPHVQALVPPVVACVGDPFYKITSEALLVTQQLVKVIRPLDQPSSFDATPYIKDLFTCTIKRLKAADIDQEVKERAISCMGQIICNLGDNLGSDLPNTLQIFLERLKNEITRLTTVKALTLIAGSPLKIDLRPVLGEGVPILASFLRKNQRALKLGTLSALDILIKNYSDSLTAAMIDAVLDELPPLISESDMHVSQMAISFLTTLAKVYPSSLSKISGSILNELIGLVRSPLLQGGALSAMLDFFQALVVTGTNNLGYMDLLRMLTGPVYSQSTALTHKQSYYSIAKCVAALTRACPKEGPAVVGQFIQDVKNSRSTDSIRLLALLSLGEVGHHIDLSGQLELKSVILEAFSSPSEEVKSAASYALGSISVGNLPEYLPFVLQEITSQPKRQYLLLHSLKEIISSASVVGLKPYVENIWALLLKHCECAEEGTRNVVAECLGKLTLIDPETLLPRLKGYLISGSSYARSSVVTAVKFTISDHPQPIDPLLKNCIGDFLKTLEDPDLNVRRVALVTFNSAAHNKPSLIRDLLDTVLPHLYNETKVRKELIREVEMGPFKHTVDDGLDIRKAAFECMYTLLDSCLDRLDIFEFLNHVEDGLKDHYDIKMLTFLMLVRLSTLCPSAVLQRLDRLVEPLRATCTTKVKANSVKQEFEKQDELKRSAMRAVAALLTIPEAEKSPLMSEFQSQISSNPELAAIFESIQKDSSSTNLESMDTS

binding result (Cul1•^GSTRbx1 [2]): binds
B2: Cand1^1-603 (domain or fragment, UniProt Q86VP6 1-603, looked up)
chain: MASASYHISNLLEKMTSSDKDFRFMATNDLMTELQKDSIKLDDDSERKVVKMILKLLEDKNGEVQNLAVKCLGPLVSKVKEYQVETIVDTLCTNMLSDKEQLRDISSIGLKTVIGELPPASSGSALAANVCKKITGRLTSAIAKQEDVSVQLEALDIMADMLSRQGGLLVNFHPSILTCLLPQLTSPRLAVRKRTIIALGHLVMSCGNIVFVDLIEHLLSELSKNDSMSTTRTYIQCIAAISRQAGHRIGEYLEKIIPLVVKFCNVDDDELREYCIQAFESFVRRCPKEVYPHVSTIINICLKYLTYDPNYNYDDEDEDENAMDADGGDDDDQGSDDEYSDDDDMSWKVRRAAAKCLDAVVSTRHEMLPEFYKTVSPALISRFKEREENVKADVFHAYLSLLKQTRPVQSWLCDPDAMEQGETPLTMLQSQVPNIVKALHKQMKEKSVKTRQCCFNMLTELVNVLPGALTQHIPVLVPGIIFSLNDKSSSSNLKIDALSCLYVILCNHSPQVFHPHVQALVPPVVACVGDPFYKITSEALLVTQQLVKVIRPLDQPSSFDATPYIKDLFTCTIKRLKAADIDQEVKERAISCMGQIICNLGDN

fold increase of KD over WT Cand1 (Cul1•^GSTRbx1 [3]): ~4.5 fold
fold of koff (fast phase) over WT Cand1 (Cul1^AMC•Rbx1 [4]): 21 fold
B3: ^ΔH1Cand1 (domain or fragment, UniProt Q86VP6 15-1230, looked up)
chain: MTSSDKDFRFMATNDLMTELQKDSIKLDDDSERKVVKMILKLLEDKNGEVQNLAVKCLGPLVSKVKEYQVETIVDTLCTNMLSDKEQLRDISSIGLKTVIGELPPASSGSALAANVCKKITGRLTSAIAKQEDVSVQLEALDIMADMLSRQGGLLVNFHPSILTCLLPQLTSPRLAVRKRTIIALGHLVMSCGNIVFVDLIEHLLSELSKNDSMSTTRTYIQCIAAISRQAGHRIGEYLEKIIPLVVKFCNVDDDELREYCIQAFESFVRRCPKEVYPHVSTIINICLKYLTYDPNYNYDDEDEDENAMDADGGDDDDQGSDDEYSDDDDMSWKVRRAAAKCLDAVVSTRHEMLPEFYKTVSPALISRFKEREENVKADVFHAYLSLLKQTRPVQSWLCDPDAMEQGETPLTMLQSQVPNIVKALHKQMKEKSVKTRQCCFNMLTELVNVLPGALTQHIPVLVPGIIFSLNDKSSSSNLKIDALSCLYVILCNHSPQVFHPHVQALVPPVVACVGDPFYKITSEALLVTQQLVKVIRPLDQPSSFDATPYIKDLFTCTIKRLKAADIDQEVKERAISCMGQIICNLGDNLGSDLPNTLQIFLERLKNEITRLTTVKALTLIAGSPLKIDLRPVLGEGVPILASFLRKNQRALKLGTLSALDILIKNYSDSLTAAMIDAVLDELPPLISESDMHVSQMAISFLTTLAKVYPSSLSKISGSILNELIGLVRSPLLQGGALSAMLDFFQALVVTGTNNLGYMDLLRMLTGPVYSQSTALTHKQSYYSIAKCVAALTRACPKEGPAVVGQFIQDVKNSRSTDSIRLLALLSLGEVGHHIDLSGQLELKSVILEAFSSPSEEVKSAASYALGSISVGNLPEYLPFVLQEITSQPKRQYLLLHSLKEIISSASVVGLKPYVENIWALLLKHCECAEEGTRNVVAECLGKLTLIDPETLLPRLKGYLISGSSYARSSVVTAVKFTISDHPQPIDPLLKNCIGDFLKTLEDPDLNVRRVALVTFNSAAHNKPSLIRDLLDTVLPHLYNETKVRKELIREVEMGPFKHTVDDGLDIRKAAFECMYTLLDSCLDRLDIFEFLNHVEDGLKDHYDIKMLTFLMLVRLSTLCPSAVLQRLDRLVEPLRATCTTKVKANSVKQEFEKQDELKRSAMRAVAALLTIPEAEKSPLMSEFQSQISSNPELAAIFESIQKDSSSTNLESMDTS

Kd (Cul1^AMC•Rbx1 [5]): 0.7 pM
B4: ^FlAsHΔH1Cand1 (domain or fragment, UniProt Q86VP6 15-1230, looked up)
chain: B3 chain
modifications: FlAsH (Lumio Green) on the N-terminal tetracysteine tag
